The target of the test is T1, Hfq_(S65C)-Flag (P. aeruginosa, UniProt Q9HUM0 1-82, S65C).
T1 construct: also called Hfq S65C-Flag protomer of Hfq*; source: E. coli JW4130F'Δhfq(pKEHfqPae); not shown: FLAG, C-terminal, kept
Nature of the test: co-IP. As to conditions: both partners purified.

B1: P. aeruginosa Hfq, wild type (natural protein)
chain: MSKGHSLQDPYLNTLRKERVPVSIYLVNGIKLQGQIESFDQFVILLKNTVSQMVYKHAISTVVPSRPVRLPSGDQPAEPGNA
notes: RNA chaperone Hfq of Pseudomonas aeruginosa, wild type, from plasmid pKEHfqPae; In the row with m4 the wild-type protomer inside the mixed hexamer is meant; also called Hfq wt; Pae Hfq; source: for Hfq* co-produced with Hfq_(S65C)-Flag in the same strain
Consider B1, for which the “stoichiometry N” value is 1 Hfq wt per Hfq_(S65C)-Flag.

These data come from article PMC8266614, “Stabilization of Hfq-mediated translational repression by the co-repressor Crc in Pseudomonas aeruginosa” (Nucleic Acids Research, 2021).
